Measured values reported in patent US20240018243A1 (NOVOMAB BIOPHARMACEUTICALS, published 2024).

What was measured:
[1] = biological target: Human CTLA4-FC recombinant protein (human); test: competition ELISA, human CTLA4-FC coated, blocked ligand CD80-FC-HIS, anti-HIS-HRP, OD450
[2] = biological target: monkey CTLA4 on expressing cells (monkey); test: cell ELISA on monkey CTLA4 expressing cells, goat anti-human IgG-HRP, OD450
[3] = biological target: T1, Human CTLA4-His recombinant protein (human, UniProt P16410 36-162); test: OCTET (BLI), antibody on protein A biosensor, CTLA4-HIS in solution
T1 construct: also called CTLA4-HIS (Sino Biological); CTLA4 recombinant protein; not shown: His tag
T1 sequence (looked up): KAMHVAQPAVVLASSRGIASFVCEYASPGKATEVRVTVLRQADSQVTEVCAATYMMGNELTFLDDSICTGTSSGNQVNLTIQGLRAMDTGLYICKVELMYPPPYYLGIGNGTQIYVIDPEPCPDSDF
Procedure: The affinity constant KD of the antibody to CTLA4 was determined using OCTET. Firstly, the protein A biosensor was used to immobilize the antibody to be detected, and the biosensors containing different antibodies were placed in the CTLA4-HIS diluent with the same concentration (Sino Biological) for binding for 4 min. The biosensor was then placed in the PBS for 400 s. The affinity constant KD of the antibody was analyzed by OCTET analysis software, KD is kd/ka.

With Isotype (antibody) the IC50 [1] was 43.6 nM.

Isotype control (antibody) was tested, and the EC50 [2] was 799 µg/mL.

B1: HCA14-KH (Fc fusion)
chain 1: ESKYGPPCPPCPAPEFLGGPSVFLFPPKPKDTLMISRTPEVTCVVVDVSQEDPEVQFNWYVDGVEVHNAKTKPREEQFNSTYRVVSVLTVLHQDWLNGKEYKCKVSNKGLPSSIEKTISKAKGQPREPQVYTLPPCQEEMTKNQVSLWCLVKGFYPSDIAVEWESNGQPENNYKTTPPVLDSDGSFFLYSRLTVDKSRWQEGNVFSCSVMHEALHNHYTQKSLSLSLGK
chain 2: EVQLLESGGGLVQPGGSLRLSCAASGSIFSINHMAWYRQAPGKQRELVAGVNSRGTTNYVDSVKGRFTISRDNSKNTLYLQMNSLRAEDTAVYYCRALGGAVAAWGQGTLVTVSSGGGGSGGGGSGGGGSESKYGPPCPPCPAPEFLGGPSVFLFPPKPKDTLMISRTPEVTCVVVDVSQEDPEVQFNWYVDGVEVHNAKTKPREEQFNSTYRVVSVLTVLHQDWLNGKEYKCKVSNKGLPSSIEKTISKAKGQPREPQVCTLPPSQEEMTKNQVSLSCAVKGFYPSDIAVEWESNGQPENNYKTTPPVLDSDGSFFLVSRLTVDKSRWQEGNVFSCSVMHEALHNHYTQKSLSLSLGK
notes: also called HCA14 -KB; monovalent antibody
In the case of B1, the Kd [3] is reported as 13.9 nM, the koff [3] is reported as 0.000481 s⁻¹ and the kon [3] is reported as 34500 M⁻¹ s⁻¹.
